Assay results from publication PMC8359077, “DNA aptamer against EV-A71 VP1 protein: selection and application”.

T1: EV-A71 VP1 (capsid protein) (Enterovirus A71) (UniProt Q66478)
T1 sequence: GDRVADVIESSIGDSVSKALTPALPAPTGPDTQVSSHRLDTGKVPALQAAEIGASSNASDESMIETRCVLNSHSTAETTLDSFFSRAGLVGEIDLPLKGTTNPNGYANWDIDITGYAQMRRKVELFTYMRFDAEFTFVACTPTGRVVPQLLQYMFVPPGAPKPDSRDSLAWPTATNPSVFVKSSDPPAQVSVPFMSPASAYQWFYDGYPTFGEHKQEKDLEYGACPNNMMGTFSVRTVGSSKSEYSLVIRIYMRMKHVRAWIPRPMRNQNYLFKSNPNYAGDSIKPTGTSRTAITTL

B1: V11 (ssDNA)
DNA: ACTAAGCCACCGTGTCCACCCTCGCCGAGTTTTCGTAACTATATCTTGTGGTTCCTATTGCTGCGTCACTCTGGAT
modifications: dU at positions 22,30,31,32,33,36,40,42,44,46,47,49,52,53,56,58,59,62,66,70,72,76 (printed 'U, uracil'; every T 3' of the 18-nt primer; whether the dU carries a C5 group is not stated)

Experiments:
[1] = target: T1, EV-A71 VP1 (capsid protein) (Enterovirus A71); test: ELISA; settings: 5 mM Mg2+; VP1 coated at 200 ng/mL; unit given as nm; given with U (uracil) mixed with t in a DNA aptamer; U may stand for T; 1x PBS, 5 mM MgCl2, 1% BSA, 1 ug/mL tRNA, 0.02% Tween-20, room temperature, 1 h; pH not stated
Bovine serum albumin = Bovine serum albumin (Bos taurus (Bovine), UniProt P02769 25-607); test: ELONA; PBS, 5 mM MgCl2, 1% BSA, 1 ug/mL tRNA, 0.02% Tween-20, RT; VP1 coated on plate; settings: label: 5'-biotin
Sequence of Bovine serum albumin (P02769 25-607): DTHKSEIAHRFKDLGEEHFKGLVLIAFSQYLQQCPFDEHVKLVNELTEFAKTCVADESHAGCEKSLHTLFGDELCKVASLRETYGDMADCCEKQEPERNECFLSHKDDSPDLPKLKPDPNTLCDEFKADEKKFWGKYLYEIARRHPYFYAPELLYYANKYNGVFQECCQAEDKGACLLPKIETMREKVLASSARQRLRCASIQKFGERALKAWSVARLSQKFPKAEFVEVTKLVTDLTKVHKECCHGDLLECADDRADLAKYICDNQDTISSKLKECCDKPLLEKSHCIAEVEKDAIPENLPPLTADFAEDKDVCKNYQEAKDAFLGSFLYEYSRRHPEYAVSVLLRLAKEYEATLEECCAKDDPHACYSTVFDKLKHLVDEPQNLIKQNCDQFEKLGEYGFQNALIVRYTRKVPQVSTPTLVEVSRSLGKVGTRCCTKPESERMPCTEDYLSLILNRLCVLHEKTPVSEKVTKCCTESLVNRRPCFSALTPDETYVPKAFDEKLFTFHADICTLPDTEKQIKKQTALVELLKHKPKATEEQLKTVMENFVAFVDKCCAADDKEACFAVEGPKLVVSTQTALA

Molecule | Kd [1] [nM] | binding result (Bovine serum albumin)
ACTAAGCCACCGTGTCCACCCUCGCCGAGUUUUCGUAACUAUAUCUUGUGGUUCCUAUUGCUGCGUCACUCUGGAU [V11] | 4.28 | –
ACTAAGCCACCGTGTCCAUCAAUGGUGUGUGCAUUCGUGUGUUGUGUUGUUUGUUGUUUGCUGCGUCACUCUGGAU [V7] | 32.7 | –
ACTAAGCCACCGTGTCCAUUCGAUUCGAUCUAAUUUGGUUCUUUCCUCACUUUUCAGUGCUGCGUCACUCUGGAU [V21] | 4.55 | –
B1 | – | no binding
